Among the data in US11834499 are flow cytometry signal values, retold here.

Where a chain is given by its changes, count along the chain named.

For experiment [1], the target named is dogCLDN18 (Canis lupus familiaris). Nature of the experiment: flow cytometry; HEK293T dogCLDN18 moxGFP mass pop, 10ug; control HEK293T parental 10ug 12,759.00. On the technique in general: A flow cytometer gives signals particle by particle.
Experiment [2] addresses rat CLDN18 (rat) (UniProt Q5I0E5). As to the kind of experiment: flow cytometry; HEK293T rat CLDN18 moxGFP Clone5, 0.1ug; control HEK293T parental 0.1ug 3,276.00.
Experiment [3] deals with Claudin-18.1 (CLDN18.1) (human) (UniProt P56856). As to the kind of experiment: flow cytometry; HEK293T human CLDN18.1 mGFP 2B14, 1ug; control HEK293T parental 1ug 5,328.00.
Experiment [4] shares this target. Nature of the experiment: flow cytometry; HEK293T human CLDN18.1 mGFP 2B14, 10ug; control HEK293T parental 10ug 12,759.00.
The target of experiment [5] is rat CLDN18 (rat) (UniProt Q5I0E5). Nature of the experiment: flow cytometry; HEK293T rat CLDN18 moxGFP Clone5, 1ug; control HEK293T parental 1ug 5,328.00.
The target is the same in experiment [6]. Nature of the experiment: flow cytometry; HEK293T rat CLDN18 moxGFP Clone5, 10ug; control HEK293T parental 10ug 12,759.00.
Experiment [7] addresses Claudin-18.1 (CLDN18.1) (human) (UniProt P56856). As to the kind of experiment: flow cytometry; HEK293T human CLDN18.1 mGFP 2B14, 0.1ug; control HEK293T parental 0.1ug 3,276.00.
The target in experiment [8] is dogCLDN18 (Canis lupus familiaris). As to the kind of experiment: flow cytometry; HEK293T dogCLDN18 moxGFP mass pop, 0.1ug; control HEK293T parental 0.1ug 3,276.00.
Experiment [9] shares this target. Nature of the experiment: flow cytometry; HEK293T dogCLDN18 moxGFP mass pop, 1ug; control HEK293T parental 1ug 5,328.00.
Experiment [10] has the same target. Nature of the experiment: flow cytometry; HEK293T dogCLDN18 moxGFP mass pop, 1ug; control HEK293T parental 1ug 4,198.00.
Experiment [11] addresses rat CLDN18 (rat) (UniProt Q5I0E5). As to the kind of experiment: flow cytometry; HEK293T rat CLDN18 moxGFP Clone5, 0.1ug; control HEK293T parental 0.1ug 3,268.00.
The target in experiment [12] is Claudin-18.1 (CLDN18.1) (human) (UniProt P56856). As to the kind of experiment: flow cytometry; HEK293T human CLDN18.1 mGFP 2B14, 10ug; control HEK293T parental 10ug 16,812.50.
Experiment [13] deals with dogCLDN18 (Canis lupus familiaris). Nature of the experiment: flow cytometry; HEK293T dogCLDN18 moxGFP mass pop, 10ug; control HEK293T parental 10ug 16,812.50.
Experiment [14] deals with rat CLDN18 (rat) (UniProt Q5I0E5). As to the kind of experiment: flow cytometry; HEK293T rat CLDN18 moxGFP Clone5, 1ug; control HEK293T parental 1ug 4,198.00.
Experiment [15] shares this target. Nature of the experiment: flow cytometry; HEK293T rat CLDN18 moxGFP Clone5, 10ug; control HEK293T parental 10ug 16,812.50.
In experiment [16] the target is dogCLDN18 (Canis lupus familiaris). Nature of the experiment: flow cytometry; HEK293T dogCLDN18 moxGFP mass pop, 0.1ug; control HEK293T parental 0.1ug 3,268.00.
Experiment [17] deals with Claudin-18.1 (CLDN18.1) (human) (UniProt P56856). Nature of the experiment: flow cytometry; HEK293T human CLDN18.1 mGFP 2B14, 0.1ug; control HEK293T parental 0.1ug 3,268.00.
The target is the same in experiment [18]. As to the kind of experiment: flow cytometry; HEK293T human CLDN18.1 mGFP 2B14, 1ug; control HEK293T parental 1ug 4,198.00.
Experiment [19] concerns the target rat CLDN18 (rat) (UniProt Q5I0E5). Nature of the experiment: flow cytometry; HEK293T rat CLDN18 moxGFP Clone5, 10ug; control HEK293T parental 10ug 29,683.50.
Experiment [20] deals with dogCLDN18 (Canis lupus familiaris). As to the kind of experiment: flow cytometry; HEK293T dogCLDN18 moxGFP mass pop, 0.1ug; control HEK293T parental 0.1ug 3,589.50.
Experiment [21] shares this target. As to the kind of experiment: flow cytometry; HEK293T dogCLDN18 moxGFP mass pop, 10ug; control HEK293T parental 10ug 29,683.50.
Experiment [22] has as its target rat CLDN18 (rat) (UniProt Q5I0E5). Nature of the experiment: flow cytometry; HEK293T rat CLDN18 moxGFP Clone5, 0.1ug; control HEK293T parental 0.1ug 3,589.50.
The target in experiment [23] is dogCLDN18 (Canis lupus familiaris). As to the kind of experiment: flow cytometry; HEK293T dogCLDN18 moxGFP mass pop, 1ug; control HEK293T parental 1ug 8,287.00.
Experiment [24] has as its target Claudin-18.1 (CLDN18.1) (human) (UniProt P56856). As to the kind of experiment: flow cytometry; HEK293T human CLDN18.1 mGFP 2B14, 0.1ug; control HEK293T parental 0.1ug 3,589.50.
Experiment [25] shares this target. As to the kind of experiment: flow cytometry; HEK293T human CLDN18.1 mGFP 2B14, 1ug; control HEK293T parental 1ug 8,287.00.
Experiment [26] has the same target. Nature of the experiment: flow cytometry; HEK293T human CLDN18.1 mGFP 2B14, 10ug; control HEK293T parental 10ug 29,683.50.
Experiment [27] concerns the target rat CLDN18 (rat) (UniProt Q5I0E5). Nature of the experiment: flow cytometry; HEK293T rat CLDN18 moxGFP Clone5, 1ug; control HEK293T parental 1ug 8,287.00.
Experiment [28] addresses dogCLDN18 (Canis lupus familiaris). As to the kind of experiment: flow cytometry; HEK293T dogCLDN18 moxGFP mass pop, 10ug; control HEK293T parental 10ug 22,390.50.
The target of experiment [29] is rat CLDN18 (rat) (UniProt Q5I0E5). Nature of the experiment: flow cytometry; HEK293T rat CLDN18 moxGFP Clone5, 1ug; control HEK293T parental 1ug 9,051.00.
Experiment [30] has the same target. Nature of the experiment: flow cytometry; HEK293T rat CLDN18 moxGFP Clone5, 10ug; control HEK293T parental 10ug 22,390.50.
The target of experiment [31] is dogCLDN18 (Canis lupus familiaris). As to the kind of experiment: flow cytometry; HEK293T dogCLDN18 moxGFP mass pop, 1ug; control HEK293T parental 1ug 9,051.00.
The target in experiment [32] is Claudin-18.1 (CLDN18.1) (human) (UniProt P56856). Nature of the experiment: flow cytometry; HEK293T human CLDN18.1 mGFP 2B14, 0.1ug; control HEK293T parental 0.1ug 2,726.00.
Experiment [33] has the same target. As to the kind of experiment: flow cytometry; HEK293T human CLDN18.1 mGFP 2B14, 10ug; control HEK293T parental 10ug 22,390.50.
Experiment [34] addresses dogCLDN18 (Canis lupus familiaris). As to the kind of experiment: flow cytometry; HEK293T dogCLDN18 moxGFP mass pop, 0.1ug; control HEK293T parental 0.1ug 2,726.00.
Experiment [35] has as its target Claudin-18.1 (CLDN18.1) (human) (UniProt P56856). As to the kind of experiment: flow cytometry; HEK293T human CLDN18.1 mGFP 2B14, 1ug; control HEK293T parental 1ug 9,051.00.
For experiment [36], the target named is rat CLDN18 (rat) (UniProt Q5I0E5). Nature of the experiment: flow cytometry; HEK293T rat CLDN18 moxGFP Clone5, 0.1ug; control HEK293T parental 0.1ug 2,726.00.

Chain of rat CLDN18 (rat) (Q5I0E5 whole entry): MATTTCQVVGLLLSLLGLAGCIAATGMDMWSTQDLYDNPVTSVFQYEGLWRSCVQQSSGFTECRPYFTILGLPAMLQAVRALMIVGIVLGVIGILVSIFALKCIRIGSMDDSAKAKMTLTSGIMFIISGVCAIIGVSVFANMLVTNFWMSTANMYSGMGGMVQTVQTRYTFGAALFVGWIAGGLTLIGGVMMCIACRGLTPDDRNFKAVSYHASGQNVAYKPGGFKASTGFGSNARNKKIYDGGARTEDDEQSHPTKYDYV
Chain of Claudin-18.1 (CLDN18.1) (human) (P56856 whole entry): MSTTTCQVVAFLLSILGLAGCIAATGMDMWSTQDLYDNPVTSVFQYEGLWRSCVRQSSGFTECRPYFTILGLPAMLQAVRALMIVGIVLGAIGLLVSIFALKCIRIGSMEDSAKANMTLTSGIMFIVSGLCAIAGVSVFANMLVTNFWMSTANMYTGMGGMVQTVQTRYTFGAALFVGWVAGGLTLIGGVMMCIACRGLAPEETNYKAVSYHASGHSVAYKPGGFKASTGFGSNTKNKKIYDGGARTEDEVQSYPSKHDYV

B1: HuAb307-3 (antibody, V domains shown)
VH: EVQLLESGGGLVQPGGSLRLSCAASGFTFSSYTMSWVRQAPGKGLEWVATIIIGGSYTYYADSVKGRFTISRDNSKNTLYLQMNSLRAEDTAVYYCTRLVKGNAMDYWGQGTLVTVSS
VL: DIVMTQSPDSLAVSLGERVTMNCKSSQSLLNSGNQKNYLSWYQQKPGQPPKLLFYWASTRESGVPDRFSGSGSGTDFTLTISSVQAEDVAVYYCQNDYSYPFTFGQGTKLEIK
As to B1, the flow cytometry signal in experiment [1] stood at 10200; in [2] it was 3810; in [3], 54100; in experiment [4], 76900; in experiment [5] it was 7320; in [6], 13800. For the same molecule, the flow cytometry signal is 52100 in [7], 3860 in [8] and 6030 in [9].

B2: 02-0358-h3 (antibody, V domains shown)
VH: EVQLVESGGGLVQPGGSLRLSCAVSGFTFSSFGMHWVRQAPGKGLEWVAYISSGTTNIYYADSVKGRFTVSRDNAKNSLYLQMNSLRAEDTAVYYCVRSGYYGNSLDYWGQGTLVTVSS
VL: B1 VL with L30F, K36R, S40T, F54I, D97V, S99I, F102L
Take B2: the flow cytometry signal in experiment [10] came out at 4230; in experiment [11] it was 3720; in experiment [12] it was 99100; in [13], 11700; in experiment [14] it was 5070; in [15], 16700. Further, the flow cytometry signal in [16] stood at 3700; in [17] it was 50400; in experiment [18], 55200.

B3: 02-0358-h5 (antibody, V domains shown)
VH: B2 VH
VL: B1 VL with L30F, N31S, K36R, S40T, F54I, D97V, S99I, F102L
Consider B3, for which the flow cytometry signal in experiment [19] was 31200; in [20], 4700; in experiment [21], 20600; in [22], 4580; in experiment [23] it was 8760; in [24], 52700. In addition, the results for the flow cytometry signal in experiment [25], in [26] and in [27] were 64800, 140000 and 12400, respectively.

B4: 02-0307-h6 (antibody, V domains shown)
VH: B1 VH
VL: B1 VL with N31S
Turning to B4, the flow cytometry signal in experiment [28] was determined as 21800; in [29], 10900; in experiment [30], 30700; in [31], 9480; in experiment [32], 53100; in [33], 156000. The figures for the flow cytometry signal in [34], in experiment [35] and in [36] were 3690, 68800 and 3600, respectively.
